# Results reported in US7482146B1, “Phenylethanolamine-N-methyltransferase sequence variants” (Mayo Foundation for Medical Education and Research, priority 2003, dated 2009).
# Read-outs that look alike come from different tables or passages of the source.
# B1: WT: recombinant wild type (reference) human PNMT polypeptide, SEQ ID NO:8, expressed in COS-1 cells (protein)
# chain: MSGADRSPNAGAAPDSAPGQAAVASAYQRFEPRAYLRNNYAPPRGDLCNPNGVGPWKLRCLAQTFATGEVSGRTLIDIGSGPTVYQLLSACSHFEDITMTDFLEVNRQELGRWLQEEPGAFNWSMYSQHACLIEGKGECWQDKERQLRARVKRVLPIDVHQPQPLGAGSPAPLPADALVSAFCLEAVSPDLASFQRALDHITTLLRPGGHLLLIGALEESWYLAGEARLTVVPVSEEEVREALVRSGYKVRDLRTYIMPAHLQTGVDDVKGVFFAWAQKVGL
# modifications: Homo sapien
# Tests used:
# [1] = tested on: PNMT; experiment: Substrate kinetics: apparent Km values of recombinant PNMT allozymes for octopamine and SAM; type: biochemical, human; settings: recombinant allozyme from COS-1 cells
# Experimental: Expression constructs for the wild type and variant PNMT sequences were transfected into COS-1 cells using the TransFast™ reagent (Promega), with a 1:1 charge ratio. pSV-β-Galactosidase (Promega) was co-transfected as an internal control to make it possible to correct for transfection efficiency. The COS-1 cells were harvested after 48 hours and were homogenized with a Polytron homogenizer (Brinkmann Instruments, Westbury, N.Y.) in 25 mM potassium phosphate buffer, pH 7.8 that contained 1 mM dithiothreitol (DTT) and 1 mM EDTA. Cell homogenates were centrifuged at 15,000×g for 15 minutes, and the resultant supernatant preparations were used for enzyme assays and substrate kinetic studies.
# Estimating Apparent Km Values: To estimate apparent Km values of PNMT for the octopamine substrate, a series of octopamine and SAM concentrations were tested with the recombinant allozymes. Blanks for each substrate concentration were included by assaying COS-1 cell cytosol after transfection with empty […] vector. […] Apparent Km values were calculated using the method of Wilkinson with a computer program written by Cleland. Wilkinson supra; and Cleland supra.
# [2] = tested on: PNMT; experiment: PNMT enzyme activity assay of recombinant allozymes (14C-SAM methylation of octopamine); type: biochemical, human; settings: recombinant allozyme in COS-1 cell homogenate; 65.9 μM octopamine, 24.22 μM 14C-SAM; corrected for transfection efficiency
# From the text: Recombinant PNMT Expression Constructs and Allozyme Expression: PNMT cDNA sequences for the three non-synonymous cSNPs that were observed during the resequencing experiments were created using the QuickChange Site-Directed Mutagenesis kit (Stratagene, La Jolla, Calif.), using the wild type PNMT cDNA open reading frame (ORF) in the pUni/V5-His-TOPO (pUni) vector (Invitrogen) as template. Specifically, the full-length wild type ORF (GenBank accession number J03727) was amplified using human brain Marathon-Ready cDNA (Clontech) as template. The resultant PNMT cDNA was subcloned into pUni, a vector that is only 2.3 kilobases in length, so it is well suited for performing “circular PCR” during site-directed mutagenesis. […]
# PNMT Enzyme Activity: PNMT activity was measured using a method based on that of Molnicoff et al. (1971) J. Pharmacol. Exp. Ther. 178(3):425-431. […] “Blank” samples included the same quantity of COS-115,000×g supernatant from cells that were transfected with “empty” pCR3.1 expression vector, making it possible to correct for endogenous activity. Reaction mixtures were incubated at 37° C. for 30 minutes, and reactions were stopped with 500 μl Borate Buffer (pH 10). ^14C-N-methyl-octopamine was extracted into toluene containing 20% isoamyl alcohol, and radioactivity of the extracted ^14C-N-methyl-octopamine was measured in a liquid scintillation counter. […]
molecule,measurement,setting,value
B1,Km,"[1]; substrate SAM, read-out: Apparent Km (SAM)",6.6 µM
same,Km,"[1]; substrate octopamine, listed as WT PNMT protein, read-out: Apparent Km (octopamine)",13.6 µM
same,Km,"[1]; substrate octopamine, read-out: Apparent Km (octopamine)",23.5 ± 3.1 µM
same,% WT Enzyme activity,[2],100 % WT
